Test results from PMC3711072.

Target: CCR3 (UniProt P51677)
Sequence (P51677 whole entry): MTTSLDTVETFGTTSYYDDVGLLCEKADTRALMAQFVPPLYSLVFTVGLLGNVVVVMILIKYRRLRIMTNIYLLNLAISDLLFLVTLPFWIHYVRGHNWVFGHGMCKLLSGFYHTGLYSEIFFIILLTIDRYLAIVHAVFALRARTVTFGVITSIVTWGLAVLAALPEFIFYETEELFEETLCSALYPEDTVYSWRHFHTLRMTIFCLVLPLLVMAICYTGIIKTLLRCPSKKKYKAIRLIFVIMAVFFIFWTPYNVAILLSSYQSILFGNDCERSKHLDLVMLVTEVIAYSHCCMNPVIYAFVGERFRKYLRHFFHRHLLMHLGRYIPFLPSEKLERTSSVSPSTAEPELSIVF

Chain of CCL5 (P13501 24-91): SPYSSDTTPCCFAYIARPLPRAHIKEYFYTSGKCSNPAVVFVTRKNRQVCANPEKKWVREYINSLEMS

reduction of CCR3 surface expression on human eosinophils (flow cytometry), 12.5 nM CCL5, 15 and 60 min: 56.1%
Substance: CCL5 (from UniProt P13501 24-91) (ligand)
